Test results reported in paper PMC4018761.

What was measured:
[1] = biological target: GST-E2 335-360 (Epstein-Barr virus) (UniProt P12978); assay: pull-down
[2] = biological target: GST-E2 300-360 (Epstein-Barr virus) (UniProt P12978); assay: pull-down

For “endogenous PRMT5 (protein arginine methyltransferase 5) (from UniProt O14744 1-637) (enzyme)”, the percent of endogenous PRMT5 pulled down [1] was 5% and the percent of endogenous PRMT5 pulled down [2] was 5%.
